{
  "source": "paper PMC7193897",
  "proteins": {"B1": {"name": "GcL (Parageobacillus caldoxylosilyticus NBRC 107762) (protein)", "chain": "MANVIKARPKLYVMDNGRMRMDKNWMIAMHNPATIHNPNAQTEFVEFPIYTVLIDHPEGKILFDTSCNPNSMGPQGRWAESTQQMFPWTATEECYLHNRLEQLKVRPEDIRYVVASHLHLDHAGCLEMFTNATIIVHEDEFNGALQCYARNQKEGAYIWADIDAWIKNNLQWRTVKRHEDNILLAEGVKVLNFGSGHAWGMLGLHVELPETGGIILASDAIYTAESYGPPIKPPGIIYDSLGYMNTVERIRRIAQETKSQVWFGHDAEQFKKFRKSTEGYYE"}},
  "key": {"purified protein [1]": {"substrate": "CCCCCCCCCC(=O)CC(=O)N[C@H]1CCOC1=O", "experiment": "purified protein", "conditions": "pH 8.3"}, "purified protein [2]": {"substrate": "CCCC(=O)N[C@H]1CCOC1=O", "experiment": "purified protein", "conditions": "pH 8.3"}},
  "data": [
    {"protein": "B1", "values": [
      {"measurement": "Km", "setting": "purified protein [1]", "value": "97 ± 9", "unit": "µM"},
      {"measurement": "Km", "setting": "purified protein [2]", "value": "(9.8 ± 0.7) × 10^2 μM"},
      {"measurement": "kcat/Km", "setting": "purified protein [2]", "value": 43000, "unit": "M⁻¹ s⁻¹"}
    ]}
  ]
}
